We go through 3 substances from patent publication US6670167B1, “Catalytic domain of the human effector cell cycle checkpoint protein kinase materials and methods for identification of inhibitors thereof” (Agouron Pharmaceuticals, Inc., priority 1999, dated 2003).

Where no end group is shown, it is not given here.

The assay has as its target T1, Chk1 kinase (Homo sapiens, UniProt O14757).
T1 construct: 2 (KH289); made in house; host or cells: baculovirus (Bac-to-Bac, pFastBac-Nde) in Hi-5 insect cells
T1 sequence (O14757 1-289): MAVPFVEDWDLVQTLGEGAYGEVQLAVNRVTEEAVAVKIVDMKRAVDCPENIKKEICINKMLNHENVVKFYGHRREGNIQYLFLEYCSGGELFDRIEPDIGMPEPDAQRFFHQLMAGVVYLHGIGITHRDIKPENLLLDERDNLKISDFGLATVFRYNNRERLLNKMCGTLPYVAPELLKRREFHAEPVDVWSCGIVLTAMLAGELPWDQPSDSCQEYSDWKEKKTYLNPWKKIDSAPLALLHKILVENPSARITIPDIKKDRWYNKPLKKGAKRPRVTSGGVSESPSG
Nature of the assay: Peptide substrates tested for activity as Chk1 substrates. It is filed as biochemical. Conditions: Syntide 2 = 100%. As for the experimental part: The enzymatic activity of a kinase is measured by its ability to catalyze the transfer of a phosphate residue from a nucleoside triphosphate to an amino acid side chain in a selected protein target. The conversion of ATP to ADP generally accompanies the catalytic reaction. Herein, a synthetic substrate peptide, Syntide-2, having amino acid sequence PLARTLSVAGLPGKK (SEQ ID NO. 11) was utilized. The production of ADP from ATP that accompanies phosphoryl transfer to the substrate was coupled to oxidation of NADH using phosphoenolpyruvate (PEP) through the actions of pyruvate kinase (PK) and lactic dehydrogenase (LDH). The oxidation of NADH was monitored by following the decrease of absorbance at 340 nm (e340=6.22 cm−1 mM−1) using a HP8452 spectrophotometer. Typical reaction solutions contained: 4 mM PEP, 0.15 mM NADH, 28 units of LDH/mL, 16 units of PK/mL, 3 mM DTT, 0.125 mM Syntide-2, 0.15 mM ATP and 25 mM MgCl2 in 50 mM TRIS pH 7.5; 400 mM NaCl. Assays were initiated with 10 nM of kinase domain of Chk1, KH289. Ki values were determined by measuring initial enzyme activity in the presence of varying concentrations of inhibitors. The data were analyzed using Enzyme Kinetic and Kaleidagraph software.
The following substrates were tested for peptide content and activity:
As described in detail below, an aspect of the invention involves a nonradioactive ELISA based assay suitable for high throughput screening (HTS). The development of the ELISA based CHK1 kinase HTS assay was first initiated with a monoclonal anti-phosphoserine antibody called Clone PSR-45, supplied by Sigma. New Chk peptide substrates, analogues of Syntide2, were synthesized to validate this assay. Biotin-Syntide-2 (SEQ ID NO. 12), and N-terminus acetylated Syntide-2 (SEQ ID NO. 13) and the expected peptide products after CHK phosphorylation, serine phosphorylated Syntide 2 (SEQ ID NO. 15), and serine phosphorylated biotin-Syntide 2 (SEQ ID NO. 16) were synthesized for assay development. […]
As to “KAGAG-PLARTLSVAGLPG-Biotin-K [Syntide 3]”, the “Activity (peptide substrate)” value was determined as 67%. As for “PLARTLSVAGLPGKK [Syntide 2, synthetic substrate peptide, reference compound]”, the figure is 100%.

With “Ac-PLARTLSVAGLPG-AGAGAGAK (Ac-PLARTLSVAGLPGAGAGAGAK) [Syntide 4, N-terminus acetylated analogue of Syntide 2]”, the “Activity (peptide substrate)” value was found to be 72%.
